Target: T1, CD179a (VpreB1) component of the pre-BCR surrogate light chain, on B-ALL cells (human, UniProt P12018 20-145)
T1 sequence (looked up): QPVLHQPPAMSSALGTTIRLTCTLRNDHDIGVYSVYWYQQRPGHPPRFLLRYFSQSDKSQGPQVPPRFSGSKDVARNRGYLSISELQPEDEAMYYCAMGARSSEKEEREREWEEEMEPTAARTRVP
Assay: cell-based or functional assay

IC50 (the inhibitory concentration that causes 50% of cells to die), Nalm6 B-ALL cell line: 0.059 µg/mL
B1: calicheamicin-based antibody-drug conjugate (ADC) against CD179a (antibody, human IgG1, kappa, V domains shown)
VH: EVQLVESGGGLVKPGGSLRLSCAASGFTFSNFEMNWVRQAPGKGLEWVSGISSNGRYINYADSVKGRFTISRDNAKNSLYLQMNSLRAEDTAVYYCARVVDFDQDYNGFDYWGQGTLVTVSS
VL: DIQLTQSPSFLSASVGDRVTITCRASQGISTDLNWYQQKPGKAPKLLIYAASNLESGVPSRFSGSGSGTEFTLTISSLQPEDFATYYCQQSYNWPYTFGGGTKVEIKR
modifications: AcBut-calicheamicin linker-payload, DAR of 5:1, conjugated residues not stated
